One assay deals with CXCL10 (Homo sapiens, UniProt P02778). Put plainly: ELISA. (In an ELISA, binding on a coated surface is turned into a signal by an enzyme label.)
The target in another assay is T1, CXCL11 (Homo sapiens, UniProt O14625).
T1 chain: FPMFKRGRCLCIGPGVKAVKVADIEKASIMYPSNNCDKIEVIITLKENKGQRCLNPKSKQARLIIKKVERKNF
Put plainly: ELISA.

This note sets out measurements from paper PMC3808276 (2013).

By Kd is commonly meant the equilibrium constant for the complex coming apart.

CXCL10, sequence (P02778 22-94): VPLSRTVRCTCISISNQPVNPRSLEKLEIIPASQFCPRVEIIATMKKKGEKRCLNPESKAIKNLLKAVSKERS

B1: Fg β15-66 15-66 (protein)
chain: MKHLLLLLLCVFLVKSQGVNDNEEGFFSARGHRPLDKKREEAPSLRPAPPPI
Consider B1, for which the results for the Kd with CXCL10 and with CXCL11 were 68 nM and 67 nM, respectively.
